From US20180162952A1 (AbbVie / Abbott, published 2018) come the findings set out here.

In experiment [1] the target is T1, PTK7 ECD Ig domains 1-2 Fc fusion (human).
T1 construct: Tested as supernatant of transfected 293 cells
T1 chain: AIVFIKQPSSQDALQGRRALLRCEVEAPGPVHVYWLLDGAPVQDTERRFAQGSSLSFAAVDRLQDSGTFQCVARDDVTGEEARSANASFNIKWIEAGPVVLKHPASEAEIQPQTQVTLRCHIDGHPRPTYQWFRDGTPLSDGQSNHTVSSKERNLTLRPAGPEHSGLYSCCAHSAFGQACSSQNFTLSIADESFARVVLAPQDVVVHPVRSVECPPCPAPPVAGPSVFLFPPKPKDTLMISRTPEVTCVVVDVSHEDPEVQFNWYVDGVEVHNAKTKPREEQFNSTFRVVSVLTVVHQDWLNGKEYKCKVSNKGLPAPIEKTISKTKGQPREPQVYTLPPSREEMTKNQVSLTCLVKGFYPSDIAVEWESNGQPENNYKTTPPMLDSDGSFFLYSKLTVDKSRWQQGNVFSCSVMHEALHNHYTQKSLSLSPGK
The experiment can be described thus: ELISA, Ig-domain Fc fusion captured by anti-human IgG Fc.
Procedure: (§1) Using these constructs several modulators were tested for their ability to recognize PTK7 proteins with deletions of defined Ig domains. Through an ELISA assay comprising the use of domain deleted constructs and run under standard conditions. In this regard PTK7 Ig domain Fc fusions were captured on ELISA plate coated with goat anti-human IgG Fc-specific (Jackson Immunoresearch) antibody. The ability of each murine anti-PTK7 antibody to bind the various deletion Fc fusion proteins was then detected with HRP-labeled goat anti-mouse Fc-specific antibody.

Experiment [2] has as its target T2, PTK7 ECD Ig domains 1-5 Fc fusion (human).
T2 chain: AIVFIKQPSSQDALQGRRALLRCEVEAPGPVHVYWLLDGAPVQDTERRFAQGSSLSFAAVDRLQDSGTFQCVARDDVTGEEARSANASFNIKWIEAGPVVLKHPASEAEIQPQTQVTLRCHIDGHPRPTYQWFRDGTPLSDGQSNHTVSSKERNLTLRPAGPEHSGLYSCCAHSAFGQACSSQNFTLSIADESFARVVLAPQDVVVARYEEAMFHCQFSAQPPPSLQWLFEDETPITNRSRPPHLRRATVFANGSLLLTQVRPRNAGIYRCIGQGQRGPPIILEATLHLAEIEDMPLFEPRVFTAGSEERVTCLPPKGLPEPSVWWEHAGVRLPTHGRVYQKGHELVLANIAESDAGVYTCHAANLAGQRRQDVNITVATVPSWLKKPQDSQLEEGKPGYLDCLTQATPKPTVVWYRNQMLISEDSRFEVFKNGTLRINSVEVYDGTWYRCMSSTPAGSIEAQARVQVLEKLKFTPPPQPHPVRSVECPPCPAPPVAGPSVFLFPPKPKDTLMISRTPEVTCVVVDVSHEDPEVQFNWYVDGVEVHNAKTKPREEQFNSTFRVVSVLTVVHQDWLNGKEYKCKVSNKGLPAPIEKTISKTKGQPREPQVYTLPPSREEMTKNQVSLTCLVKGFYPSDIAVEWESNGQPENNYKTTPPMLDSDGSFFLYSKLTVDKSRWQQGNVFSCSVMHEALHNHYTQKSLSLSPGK
The experiment is described as above.
Procedure: as §1

In experiment [3] the target is T3, PTK7 ECD Ig domains 6-7 Fc fusion (human).
T3 chain: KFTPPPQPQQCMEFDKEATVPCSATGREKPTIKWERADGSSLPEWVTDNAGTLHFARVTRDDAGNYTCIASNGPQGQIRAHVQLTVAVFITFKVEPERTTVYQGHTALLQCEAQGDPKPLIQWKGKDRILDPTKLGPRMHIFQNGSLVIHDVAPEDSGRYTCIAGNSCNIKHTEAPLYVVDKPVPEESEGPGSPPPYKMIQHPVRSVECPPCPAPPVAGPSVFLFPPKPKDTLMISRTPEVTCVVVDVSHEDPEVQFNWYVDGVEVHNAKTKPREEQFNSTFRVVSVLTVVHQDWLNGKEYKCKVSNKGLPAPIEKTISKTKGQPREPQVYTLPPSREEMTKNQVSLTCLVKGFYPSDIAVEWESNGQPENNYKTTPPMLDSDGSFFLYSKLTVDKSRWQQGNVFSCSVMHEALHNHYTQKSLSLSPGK
Described as above.
Procedure: as §1

Experiment [4] deals with T4, murine PTK7-His (murine, UniProt Q8BKG3 23-696, limits assumed).
T4 construct: also called mouse PTK7-His; mouse PTK7
T4 sequence (looked up): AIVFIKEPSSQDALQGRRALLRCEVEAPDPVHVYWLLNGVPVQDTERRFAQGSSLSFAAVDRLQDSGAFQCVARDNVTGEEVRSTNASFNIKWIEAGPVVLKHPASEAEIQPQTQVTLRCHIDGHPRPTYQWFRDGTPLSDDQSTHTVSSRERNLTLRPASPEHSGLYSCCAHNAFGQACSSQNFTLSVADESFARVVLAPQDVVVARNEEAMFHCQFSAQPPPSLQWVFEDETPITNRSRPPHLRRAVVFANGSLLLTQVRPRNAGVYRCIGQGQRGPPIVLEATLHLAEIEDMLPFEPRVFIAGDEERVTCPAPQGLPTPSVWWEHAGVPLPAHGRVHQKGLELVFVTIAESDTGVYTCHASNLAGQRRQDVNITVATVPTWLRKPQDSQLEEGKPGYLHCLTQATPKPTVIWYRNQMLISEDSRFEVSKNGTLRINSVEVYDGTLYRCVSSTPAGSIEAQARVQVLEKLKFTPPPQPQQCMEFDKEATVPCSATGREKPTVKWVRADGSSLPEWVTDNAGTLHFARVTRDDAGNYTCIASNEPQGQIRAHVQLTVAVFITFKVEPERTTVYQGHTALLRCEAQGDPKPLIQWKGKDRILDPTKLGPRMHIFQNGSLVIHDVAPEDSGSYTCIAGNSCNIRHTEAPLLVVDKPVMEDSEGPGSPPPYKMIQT
The experiment can be described thus: ForteBio bio-layer interferometry, mouse PTK7-His against human PTK7-His.

Experiment [5] has as its target T4, murine PTK7-His. Briefly: ForteBio bio-layer interferometry, one antigen concentration (400 nM).

B1: SC6.2.35 (antibody, V domains shown)
VH: QVQMQQSGAELMKPGASVKLSCKATGYTFTGYWIEWVKQRPGHGLEWIGEILPGSGRSNSNEKFKGKATFTADTSSNTAYMQLSSLTTEDSAIYYCARGKLSWGQGTLVTVSA
VL: DIVLTQSPASLAVSLGQRATISCRASESVDSFGNSFMHWYQQKPGQPPKLLIYAASNLGSGVPARFSGSGSGTDFSLNIHPVEEDDSAMYFCQQSKEVPRTFGGGSRLEIKR
notes: Murine monoclonal antibody from a hybridoma; also called H2.35; SC6.H2
With B1, the binding result in experiment [1] is recorded as “binds”; in experiment [2], “binds”; in experiment [3], “no binding”. Moreover, in the experiment with murine PTK7-His [4], the “binding to mouse PTK7 relative to human” value was about 10%.

B2: SC6.10.2 (antibody, V domains shown)
VH: QVQLQQSGAELVRPGVSVKISCKGSGYRFTDYPIHWVKQSHAKSLEWIGIISTYYGDVTNNPKFRGKATMTVDKSSTTAYMELARLTSEDSAIYYCARNDLFAYWGQGTLVTVSA
VL: DIVMTQSQKFMSTSVGDRVNVTCKASQNVGTNVVWYQQKTGQSPKALIHSASYRYSGVPDRFTGSGSGTDFTLTLSNVQSEDLAEYFCQHYNSFPYTFGGGTKLEIKR
notes: Murine monoclonal antibody from a hybridoma; also called H10.2; H10
In the case of B2, the binding result is on record as “no binding (tested: 400 nM)” with murine PTK7-His [5], “binds” in experiment [2] and “no binding” in experiment [3].
